Reference: the supplement of paper PMC9112550, “Optimization of the antimicrobial peptide Bac7 by deep mutational scanning” (BMC Biology, 2022)

test system: Escherichia coli TOP10; experiment: shrunken log2 fold change of peptide-encoding DNA abundance (4.5 h post-induction vs induction); higher = less antimicrobial activity (less host growth inhibition); settings: time post-induction: 4.5 h; library: site-saturation at positions 5, 18, 19, 20
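Note: peptides expressed intracellularly from a pBAD plasmid library in pooled LB shake-flask culture, induced with 0.3% L-arabinose, DNA abundance read by NGS, three biological replicates, DESeq2 with apeglm shrinkage.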

Sequence | shrunken log2 fold change
RRIRARPPRLPRPRPRPCRLPRP | -0.0461
RRIRKRPPRLPRPRPRPERGPRP | 0.443
RRIRIRPPRLPRPRPRPVTDPRP | -0.00257
RRIRNRPPRLPRPRPRPYDWPRP | 0.0127
RRIRERPPRLPRPRPRPWVPPRP | 0.0883
RRIRMRPPRLPRPRPRPCLYPRP | -0.331
RRIRFRPPRLPRPRPRPISGPRP | 0.00212
RRIRHRPPRLPRPRPRPHETPRP | 0.0369
RRIRRRPPRLPRPRPRPGWSPRP | 0.472
RRIRKRPPRLPRPRPRPTQNPRP | 1.07
RRIRVRPPRLPRPRPRPATRPRP | 0.383
RRIRGRPPRLPRPRPRPPWHPRP | 0.396
RRIRYRPPRLPRPRPRPAISPRP | -0.149
RRIRFRPPRLPRPRPRPFFYPRP | -0.308
RRIRMRPPRLPRPRPRPQDSPRP | 0.051
RRIRARPPRLPRPRPRPLVAPRP | 0.58
RRIRTRPPRLPRPRPRPYAWPRP | -0.0721
RRIRWRPPRLPRPRPRPKQHPRP | 0.299
RRIRVRPPRLPRPRPRPGRRPRP | 0.236
RRIRNRPPRLPRPRPRPSTTPRP | -0.47
RRIRCRPPRLPRPRPRPTVFPRP | 0.197
RRIRWRPPRLPRPRPRPPPAPRP | 1.2
RRIRDRPPRLPRPRPRPQGQPRP | 0.000653
RRIRCRPPRLPRPRPRPAMTPRP | -0.0039
RRIRKRPPRLPRPRPRPPPSPRP | 0.911

Sequence | shrunken log2 fold change
RRIRERPPRLPRPRPRPHLYPRP | -0.858
RRIRMRPPRLPRPRPRPTGMPRP | 0.136
RRIRFRPPRLPRPRPRPDCMPRP | -0.286
RRIRQRPPRLPRPRPRPPQWPRP | 0.525
RRIRRRPPRLPRPRPRPNDYPRP | -0.407
RRIRRRPPRLPRPRPRPAEEPRP | 0.618
RRIRIRPPRLPRPRPRPAPSPRP | 0.444
RRIRWRPPRLPRPRPRPPPIPRP | 0.574
RRIRPRPPRLPRPRPRPNVYPRP | -0.177
RRIRARPPRLPRPRPRPPPSPRP | 1.26
RRIRNRPPRLPRPRPRPLIKPRP | -0.651
RRIRFRPPRLPRPRPRPNNMPRP | -0.699
RRIRNRPPRLPRPRPRPTHHPRP | -0.0659
RRIRARPPRLPRPRPRPWHYPRP | -0.253
RRIRLRPPRLPRPRPRPSYAPRP | -0.134
RRIRGRPPRLPRPRPRPIYSPRP | -0.05
RRIRMRPPRLPRPRPRPAADPRP | 2.81
RRIRPRPPRLPRPRPRPDDPPRP | -0.0693
RRIRMRPPRLPRPRPRPQSYPRP | 0.00618
RRIRNRPPRLPRPRPRPHANPRP | 0.0684
RRIRFRPPRLPRPRPRPFEHPRP | -0.0558
RRIRPRPPRLPRPRPRPWYQPRP | -0.0967
RRIRYRPPRLPRPRPRPNITPRP | -1.03
RRIRERPPRLPRPRPRPPYAPRP | -0.208
RRIRPRPPRLPRPRPRPWGTPRP | -0.0725

Sequence | shrunken log2 fold change
RRIRRRPPRLPRPRPRPQMHPRP | 0.354
RRIRIRPPRLPRPRPRPDCRPRP | -0.015
RRIRPRPPRLPRPRPRPSGHPRP | -0.395
RRIRDRPPRLPRPRPRPVYNPRP | -0.00379
RRIRGRPPRLPRPRPRPNSQPRP | 0.271
RRIRLRPPRLPRPRPRPEACPRP | -0.0158
RRIRHRPPRLPRPRPRPHRQPRP | -0.0335
RRIRNRPPRLPRPRPRPDAWPRP | 0.0835
RRIRIRPPRLPRPRPRPDFVPRP | -0.0852
RRIRKRPPRLPRPRPRPHKLPRP | 0.00078
RRIRARPPRLPRPRPRPHRCPRP | 0.0993
RRIRPRPPRLPRPRPRPNMRPRP | 0.272
RRIRGRPPRLPRPRPRPASPPRP | 0.323
RRIRHRPPRLPRPRPRPQHIPRP | -0.595
RRIRARPPRLPRPRPRPRQRPRP | 1.13
RRIRTRPPRLPRPRPRPDQYPRP | -0.0122
RRIRHRPPRLPRPRPRPWPKPRP | 0.015
RRIRSRPPRLPRPRPRPLWIPRP | -0.497
RRIRPRPPRLPRPRPRPFCRPRP | 0.00205
RRIRERPPRLPRPRPRPNTRPRP | -0.0785
RRIRCRPPRLPRPRPRPPVCPRP | 0.222
RRIRYRPPRLPRPRPRPTCPPRP | -0.434
RRIRMRPPRLPRPRPRPYVLPRP | -0.189
RRIRMRPPRLPRPRPRPYSLPRP | -0.129
RRIRARPPRLPRPRPRPSGKPRP | -0.0838
